Measurements: patent US20110300156A1 (Genmab, published 2011)

How the values were obtained:
TF (Innovin) [1] = molecular target: T1, TF (Innovin) (UniProt P13726 33-295, limits assumed); experiment: cell-based or functional assay
[2] = molecular target: T2, TFECDHis (extracellular domain of tissue factor, amino acid 1-251, with C-terminal His tag) (human, UniProt P13726 33-251); experiment: competition ELISA, inhibition of FVIIa (100 nM) binding to coated TFECDHis
T2 construct: range 1-251; The stated range 1-251 starts at residue 1 of NP-001984; also called extracellular domain of TF
Description: ELISA plates were coated overnight with TFECDHis (0.5 μg/mL, 100 μL per well). Plates were emptied, blocked with PBS containing 2% (v/v) chicken serum (1 hour, RT), and emptied again. […] Plates were washed and incubated with swine-anti-rabbit IgG-HRP antibody (1:2,500; DAKO). After washing, the immune complexes were visualized using ABTS as a substrate.

TF (Innovin) [3] = molecular target: T1, TF (Innovin); experiment: cell-based or functional assay; remark: listed apart in the source
[4] = molecular target: T3, human tissue factor (TF), membrane-bound on cells (human, UniProt P13726 33-295); experiment: FACS, MDA-MB-231 cells, 30 µg/mL
T3 construct: whole, on cells; also called cellular TF
Outline: (§1)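 Cell binding of titrated HuMabs, measured on ice by flow cytometry with PE anti-human IgGFc detection. Controls: HuMab-KLH (negative) and mouse anti-TF with PE anti-mouse IgGFc (positive).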

[5] = molecular target: T3, human tissue factor (TF), …; experiment: FACS, MDA-MB-231 cells
Outline: as §1

[6] = molecular target: T3, human tissue factor (TF), …; experiment: FACS, A431 cells, 30 µg/mL
Outline: as §1

[7] = molecular target: T3, human tissue factor (TF), …; experiment: FACS, Bx-PC3 cells, 30 µg/mL
Outline: as §1

[8] = molecular target: T3, human tissue factor (TF), …; experiment: cell-based or functional assay
[9] = molecular target: T3, human tissue factor (TF), …; experiment: FACS, Bx-PC3 cells
Outline: as §1

[10] = molecular target: T3, human tissue factor (TF), …; experiment: FACS on MDA-MB-231 cells (~900.000 TF molecules/cell) [panel MDA-MB-231 cells]
Description: Cells were resuspended in PBS (2×10⁶ cells/ml), put in 96-well V-bottom plates (50 μl/well). 50 μl of serially diluted HuMab in FACS buffer (PBS supplemented with 0.1% BSA and 0.02% Na-azide) was added to the cells and incubated for 30 minutes on ice. After washing three times with FACS buffer, 50 μl of phycoerythrin (PE)-conjugated goat anti-human IgGFc (Jackson ImmunoResearch), diluted 1:100 in FACS buffer, was added. After 30 minutes on ice (in the dark), cells were washed three times, and specific binding of the HuMabs was detected by flow cytometry on a FACSCalibur (BD Biosciences). HuMab-KLH was used as a negative control. Mouse anti-TF followed by PE-conjugated anti-mouse IgGFc was used as positive control. Binding curves were analyzed using non-linear regression (sigmoidal dose-response with variable slope) using GraphPad Prism V4.03 software (GraphPad Software, San Diego, Calif., USA).
Binding of anti-TF HuMabs to membrane-bound TF on cell lines expressing different levels of TF was determined by FACS analysis, essentially as described supra. Mouse anti-TF antibody followed by PE-conjugated anti-mouse IgGFc was used as a positive control. Fluorescence was measured on a FACSCantoII. Binding curves were analyzed essentially as described supra, using GraphPad Prism 5 software. The amount of TF molecules on cell lines was determined by Qifi kit (Dako, Glostrup, Denmark), according to the manufacturer's instructions.

[11] = molecular target: T3, human tissue factor (TF), …; experiment: cell-based or functional assay; remark: listed apart in the source
[12] = molecular target: T3, human tissue factor (TF), …; experiment: FACS, TF transfected CHO cells (S1015-TF), 7.5 µg/mL
Outline: as §1

[13] = molecular target: T2, TFECDHis (extracellular domain of …); experiment: ELISA, coated TFECDHis, mean of 3
Outline: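 Plates coated overnight at +4° C with 0.5 μg/mL TFECDHis in PBS pH 7.4, blocked with 2% chicken serum. Serially diluted HuMabs bound 1 h at RT with shaking, detected with HRP anti-human IgG. Binding curves fitted by sigmoidal dose-response with variable slope; anti-KLH HuMab served as negative control.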

[14] = molecular target: T3, human tissue factor (TF), …; experiment: cell-based or functional assay; remark: listed apart in the source
[15] = molecular target: T3, human tissue factor (TF), …; experiment: FACS, A431 cells
Outline: as §1

B1: anti-TF HuMab 109 (antibody, V domains shown)
VH: QVQLVESGGGVVQPGRSLRLSCPASGFTFSIYAMHWVRQAPGKGLEWVAVVSNDGYNKYYADSVKGRFTISRDNSKDTLYLQMNSLRAEDTAVYYCARDGQLGRGYFDYWGQGTLVTVSS
VL: EIVLTQSPATLSLSPGERAILSCRASQSVSSYLAWYQQKPGQAPRLLIYDASNRATGIPARFSGSGSGTDFTLTISSLEPEDFAVYYCQQRSNWPLTFGGGTKVEIK
notes: Human monoclonal antibody from HuMab mice
IC50, inhibition of blood coagulation (TF induced clotting time) (TF (Innovin) [1]): 7.6 nM
max inhibition [2]: 90%
% max inhibition of FXa generation (TF (Innovin) [3]): 18%
IC50, inhibition of FXa generation (TF (Innovin) [3]): 0.09 nM
Max MFI [4]: 2050
EC50 [5]: 2.16 nM
Max MFI [6]: 3120
Max MFI [7]: 1320
EC50 of ADCC, Bx-PC3 cells [8]: 0.06 nM
EC50 of ADCC, MDA-MB-231 cells [8]: 0.12 nM
EC50 [9]: 4.04 nM
EC50 (read off the curve) [10]: ~0.07 µg/mL
% max inhibition of FVIIa induced ERK phosphorylation (A431) [11]: 72%
IC50, inhibition of FVIIa induced ERK phosphorylation (A431) [11]: 2.42 nM
Max MFI [12]: 5630
EC50 [13]: 0.27 nM
IC50, inhibition of FVIIa induced IL-8 release (MDA-MB-231) [14]: 13.6 nM
max inhibition of FVIIa induced IL-8 release (MDA-MB-231) [14]: 70.4%
EC50 [15]: 1.74 nM

B2: anti-TF HuMab 013 (antibody, V domains shown)
VH: EVQLVQSGAEVKKPGESLKISCKGSGYSFTSYWIGWVRQMPGKGLEWMGIIYPGDSDTRYSPSFQGQVTISADKSISTAYLQWSSLKASDTAMYYCARIHRGAGYSSSWPGAFDIWGQGTMVTVSS
VL: DIQMTQSPSSLSASVGDRVTITCRASQGISRWLAWYQQKPEKAPKSLIYAASSLQSGVPSRFSGSGSGTDFTLTISSLQPEDFATYYCQQYDSDPITFGQGTRLEIK
notes: Human monoclonal antibody from HuMab mice; also called HuMab-TF-13
IC50, inhibition of blood coagulation (TF induced clotting time) (TF (Innovin) [1]): 0.6 nM
IC50 [2]: 19.3 nM
max inhibition [2]: 27%
% max inhibition of FXa generation (TF (Innovin) [3]): 31%
IC50, inhibition of FXa generation (TF (Innovin) [3]): 0.05 nM
Max MFI [4]: 2450
EC50 [5]: 1.58 nM
Max MFI [6]: 3620
Max MFI [7]: 1300
EC50 of ADCC, Bx-PC3 cells [8]: 0.07 nM
EC50 of ADCC, MDA-MB-231 cells [8]: 0.06 nM
EC50 [9]: 1.86 nM
EC50 (read off the curve) [10]: ~0.1 µg/mL
% max inhibition of FVIIa induced ERK phosphorylation (A431) [11]: 26%
IC50, inhibition of FVIIa induced ERK phosphorylation (A431) [11]: 9.11 nM
Max MFI [12]: 5210
EC50 [13]: 0.24 nM
max inhibition of FVIIa induced IL-8 release (MDA-MB-231) [14]: -0.3%
EC50 [15]: 8.04 nM
